The supplement of paper PMC11246515
± gives the standard deviation of the averaged measurements.

Experiment: total protein half-life in vivo (active degradation + dilution); higher = more stable protein
[1] = E. coli NCM3722 delta-clpP delta-lon delta-hslV, growth: N-lim chemostat, doubling time 6 h
[2] = E. coli NCM3722 delta-smpB, growth: N-lim chemostat, doubling time 6 h
[3] = wild type E. coli NCM3722, growth: C-lim chemostat, doubling time 3 h
[4] = wild type E. coli NCM3722, growth: C-lim chemostat, doubling time 6 h
[5] = wild type E. coli NCM3722, growth: C-lim chemostat, doubling time 12 h
[6] = wild type E. coli NCM3722, growth: N-lim chemostat, doubling time 6 h
[7] = wild type E. coli NCM3722, growth: P-lim chemostat, doubling time 6 h
[8] = wild type E. coli NCM3722, growth: P-lim chemostat, doubling time 12 h
[9] = E. coli NCM3722 delta-clpP, growth: N-lim chemostat, doubling time 6 h
[10] = E. coli NCM3722 delta-hslV, growth: N-lim chemostat, doubling time 6 h
[11] = E. coli NCM3722 delta-lon, growth: N-lim chemostat, doubling time 6 h
[12] = wild type E. coli NCM3722, growth: N-lim chemostat, doubling time 12 h

## MKSILIEKPNQLAIVEREIPTPSAGEVRVKVKLAGICGSDSHIYRGHNPFAKYPRVIGHEFFGVIDAVGEGVESARVGERVAVDPVVSCGHCYPCSIGKPNVCTTLAVLGVHADGGFSEYAVVPAKNAWKIPEAVADQYAVMIEPFTIAANVTGHGQPTENDTVLVYGAGPIGLTIVQVLKGVYNVKNVIVADRIDERLEKAKESGADWAINNSQTPLGEIFTEKGIKPTLIIDAACHPSILKEAVTLASPAARIVLMGFSSEPSEVIQQGITGKELSIFSSRLNANKFPIVIDWLSKGLIKPEKLITHTFDFQHVADAISLFEQDQKHCCKVLLTFSE
[1]
  total protein half-life in vivo: 3.84 ± 0.53 h
[2]
  total protein half-life in vivo: 2.11 h
[3]
  total protein half-life in vivo: 2.26 ± 0.28 h
[4]
  total protein half-life in vivo: 3.455 ± 0.03 h
[5]
  total protein half-life in vivo: 8.98 ± 3.8 h
[6]
  total protein half-life in vivo: 2.37 h
[7]
  total protein half-life in vivo: 4.75 h
[8]
  total protein half-life in vivo: 7.18 h

## MKSKDTLKWFPAQLPEVRIILGDAVVEVAKQGRPINTRTLLDYIEGNIKKTSWLDNKELLQTAISVLKDNQNLNGKM
[2]
  total protein half-life in vivo: 2.39 h
[5]
  total protein half-life in vivo: 4.92 h

## MKSKVLALLIPALLAAGAAHAAEVYNKDGNKLDLYGKVDGLHYFSDNSAKDGDQSYARLGFKGETQINDQLTGYGQWEYNIQANNTESSKNQSWTRLAFAGLKFADYGSFDYGRNYGVMYDIEGWTDMLPEFGGDSYTNADNFMTGRANGVATYRNTDFFGLVNGLNFAVQYQGNNEGASNGQEGTNNGRDVRHENGDGWGLSTTYDLGMGFSAGAAYTSSDRTNDQVNHTAAGGDKADAWTAGLKYDANNIYLATMYSETRNMTPFGDSDYAVANKTQNFEVTAQYQFDFGLRPAVSFLMSKGRDLHAAGGADNPAGVDDKDLVKYADIGATYYFNKNMSTYVDYKINLLDEDDSFYAANGISTDDIVALGLVYQF
[3]
  total protein half-life in vivo: 3.6 h
[4]
  total protein half-life in vivo: 6.9 h
[5]
  total protein half-life in vivo: 11.9 h

## MKSLFKVTLLATTMAVALHAPITFAAEAAKPATAADSKAAFKNDDQKSAYALGASLGRYMENSLKEQEKLGIKLDKDQLIAGVQDAFADKSKLSDQEIEQTLQAFEARVKSSAQAKMEKDAADNEAKGKEYREKFAKEKGVKTSSTGLVYQVVEAGKGEAPKDSDTVVVNYKGTLIDGKEFDNSYTRGEPLSFRLDGVIPGWTEGLKNIKKGGKIKLVIPPELAYGKAGVPGIPPNSTLVFDVELLDVKPAPKADAKPEADAKAADSAKK
[1]
  total protein half-life in vivo: 6.63 ± 0.44 h
[9]
  total protein half-life in vivo: 6.6 ± 0.35 h
[10]
  total protein half-life in vivo: 6.58 ± 0.14 h
[11]
  total protein half-life in vivo: 6.56 ± 0.067 h
[2]
  total protein half-life in vivo: 5.9 ± 0.28 h
[3]
  total protein half-life in vivo: 3.15 ± 0.053 h
[4]
  total protein half-life in vivo: 6.68 ± 0.15 h
[5]
  total protein half-life in vivo: 11.5 ± 0.64 h
[6]
  total protein half-life in vivo: 5.86 ± 0.3 h
[12]
  total protein half-life in vivo: 14 ± 2.2 h
[7]
  total protein half-life in vivo: 6.04 ± 0.87 h
[8]
  total protein half-life in vivo: 14.8 ± 1.6 h

## MKSLRLMLCAMPLMLTGCSTMSSVNWSAANPWNWFGSSTKVSEQGVGELTASTPLQEQAIADALDGDYRLRSGMKTANGNVVRFFEVMKGDNVAMVINGDQGTISRIDVLDSDIPADTGVKIGTPFSDLYSKAFGNCQKADGDDNRAVECKAEGSQHISYQFSGEWRGPEGLMPSDDTLKNWKVSKIIWRR
[1]
  total protein half-life in vivo: 5.96 ± 0.15 h
[9]
  total protein half-life in vivo: 6.484 ± 0.023 h
[10]
  total protein half-life in vivo: 7.579 ± 0.065 h
[2]
  total protein half-life in vivo: 6.4 ± 0.55 h
[3]
  total protein half-life in vivo: 3.24 ± 0.74 h
[4]
  total protein half-life in vivo: 6.151 ± 0.0073 h
[5]
  total protein half-life in vivo: 14.8 ± 0.17 h
[6]
  total protein half-life in vivo: 6.63 ± 0.47 h
[7]
  total protein half-life in vivo: 6.68 ± 0.71 h

## MKSNRQARHILGLDHKISNQRKIVTEGDKSSVVNNPTGRKRPAEK
[1]
  total protein half-life in vivo: 1.25 ± 0.066 h
[9]
  total protein half-life in vivo: 0.873 h
[10]
  total protein half-life in vivo: 1.04 ± 0.075 h
[11]
  total protein half-life in vivo: 1.37 ± 0.39 h
[2]
  total protein half-life in vivo: 0.657 h
[3]
  total protein half-life in vivo: 1.64 ± 0.16 h
[4]
  total protein half-life in vivo: 1.85 h
[5]
  total protein half-life in vivo: 1.81 ± 0.55 h
[6]
  total protein half-life in vivo: 1.08 h
[12]
  total protein half-life in vivo: 1.74 ± 0.51 h
[7]
  total protein half-life in vivo: 0.899 ± 0.2 h
[8]
  total protein half-life in vivo: 1.34 ± 0.98 h

## MKSPAPSRPQKMALIPACIFLCFAALSVQAEETPVTPQPPDILLGPLFNDVQNAKLFPDQKTFADAVPNSDPLMILADYRMQQNQSGFDLRHFVNVNFTLPKEGEKYVPPEGQSLREHIDGLWPVLTRSTENTEKWDSLLPLPEPYVVPGGRFREVYYWDSYFTMLGLAESGHWDKVADMVANFAHEIDTYGHIPNGNRSYYLSRSQPPFFALMVELLAQHEGDAALKQYLPQMQKEYAYWMDGVENLQAGQQEKRVVKLQDGTLLNRYWDDRDTPRPESWVEDIATAKSNPNRPATEIYRDLRSAAASGWDFSSRWMDNPQQLNTLRTTSIVPVDLNSLMFKMEKILARASKAAGDNAMANQYETLANARQKGIEKYLWNDQQGWYADYDLKSHKVRNQLTAAALFPLYVNAAAKDRANKMATATKTHLLQPGGLNTTSVKSGQQWDAPNGWAPLQWVATEGLQNYGQKEVAMDISWHFLTNVQHTYDREKKLVEKYDVSTTGTGGGGGEYPLQDGFGWTNGVTLKMLDLICPKEQPCDNVPATRPTVKSATTQPSTKEAQPTP
[1]
  total protein half-life in vivo: 6.13 ± 0.28 h
[10]
  total protein half-life in vivo: 7.29 ± 0.5 h
[11]
  total protein half-life in vivo: 6.16 ± 0.95 h
[2]
  total protein half-life in vivo: 5.94 ± 0.87 h
[3]
  total protein half-life in vivo: 3.51 ± 0.67 h
[4]
  total protein half-life in vivo: 6.59 ± 0.25 h
[5]
  total protein half-life in vivo: 11.2 ± 0.94 h
[6]
  total protein half-life in vivo: 6.28 ± 0.098 h
[12]
  total protein half-life in vivo: 14.4 ± 0.85 h
[8]
  total protein half-life in vivo: 14.4 ± 1.6 h

## MKSTSDLFNEIIPLGRLIHMVNQKKDRLLNEYLSPLDITAAQFKVLCSIRCAACITPVELKKVLSVDLGALTRMLDRLVCKGWVERLPNPNDKRGVLVKLTTGGAAICEQCHQLVGQDLHQELTKNLTADEVATLEYLLKKVLP
[1]
  total protein half-life in vivo: 4.66 ± 0.39 h
[9]
  total protein half-life in vivo: 6.71 h
[10]
  total protein half-life in vivo: > 8 h
[2]
  total protein half-life in vivo: 4.66 ± 0.12 h
[4]
  total protein half-life in vivo: 5.68 ± 0.62 h
[5]
  total protein half-life in vivo: 11.7 ± 2.1 h
[6]
  total protein half-life in vivo: 4.4 ± 0.066 h
[12]
  total protein half-life in vivo: 7.75 ± 0.37 h
[7]
  total protein half-life in vivo: 3.68 h
[8]
  total protein half-life in vivo: 10.8 h

## MKSVFTISASLAISLMLCCTAQANDHKLLGAIAMPRNETNDLALKLPVCRIVKRIQLSADHGDLQLSGASVYFKAARSASQSLNIPSEIKEGQTTDWININSDNDNKRCVSKITFSGHTVNSSDMATLKIIGDD
[9]
  total protein half-life in vivo: 3.9 h
[2]
  total protein half-life in vivo: 5.9 h
[4]
  total protein half-life in vivo: 4.34 h
[12]
  total protein half-life in vivo: 13 h
[8]
  total protein half-life in vivo: 8.91 h

## MKTDTPSLETPQAARLRRRQLIRQLLERDKTPLAILFMAAVVGTLVGLAAVAFDKGVAWLQNQRMGALVHTADNYPLLLTVAFLCSAVLAMFGYFLVRKYAPEAGGSGIPEIEGALEDQRPVRWWRVLPVKFFGGLGTLGGGMVLGREGPTVQIGGNIGRMVLDIFRLKGDEARHTLLATGAAAGLAAAFNAPLAGILFIIEEMRPQFRYTLISIKAVFIGVIMSTIMYRIFNHEVALIDVGKLSDAPLNTLWLYLILGIIFGIFGPIFNKWVLGMQDLLHRVHGGNITKWVLMGGAIGGLCGLLGFVAPATSGGGFNLIPIATAGNFSMGMLVFIFVARVITTLLCFSSGAPGGIFAPMLALGTVLGTAFGMVAVELFPQYHLEAGTFAIAGMGALLAASIRAPLTGIILVLEMTDNYQLILPMIITGLGATLLAQFTGGKPLYSAILARTLAKQEAEQLARSKAASASENT
[1]
  total protein half-life in vivo: 6.2 ± 0.78 h
[9]
  total protein half-life in vivo: 6.38 h
[10]
  total protein half-life in vivo: 6.54 ± 0.83 h
[11]
  total protein half-life in vivo: 6.03 h
[2]
  total protein half-life in vivo: 5.82 ± 0.66 h
[4]
  total protein half-life in vivo: 5.8 ± 0.28 h
[5]
  total protein half-life in vivo: 13.2 ± 3.7 h
[6]
  total protein half-life in vivo: 6.08 ± 0.083 h
[12]
  total protein half-life in vivo: 11.3 h
[7]
  total protein half-life in vivo: 6.1 ± 0.11 h
[8]
  total protein half-life in vivo: 11.3 ± 0.43 h
